Data from PMC9779650 (2022).

Tests used:
[1] = target: T1, SARS-CoV-2 spike RBD-His (wildtype, WA1/2020) (SARS-CoV-2, UniProt P0DTC2 319-541); assay: BLI
[2] = target: T1, SARS-CoV-2 spike RBD-His (wildtype, …); assay: BLI; remark: listed apart in the source

B1: P4A2 monoclonal antibody (antibody, V domains shown)
VH: QVQLQQSGAELVKPGASVKLSCKASGFTFTRYSIYWMKQRPGQGLEWIGEINPSTGDTNFNEKFKSKATLTVDKSSTTAYMQLSSLTSEDSAVYYCTRSTGYWGQGTLVTVSA
VL: DIVLTQSPASLAVSLGQRATISCRASESVEYHGTILMQWFQQKPGQPPRLLIYAASNVDSGVPARFSGSGSGTDLSLNIHPVEEDDIAMYFCQQSRKVPYTFGGGTKLEIK
- koff [1]: < 1e-07 s⁻¹
- Kd [2]: < 1 pM
